Laboratory results: article PMC10662749
“Also recorded” adds a separate entry of the source.

Settings: glycan changed form

| Substance | other: pseudovirus infectivity | other: proteolytic processing | other: neutralisation sensitivity, other: maximum % neutralisation | other: pseudovirus infectivity, fold_change |
| --- | --- | --- | --- | --- |
| SARS-CoV-2 spike, B.1.617.2 (Delta): 20 μM swainsonine | no change | – | – | – |
| SARS-CoV-2 spike, B.1.617.2 (Delta): 50 μM kifunensine | decreases | no change | – | – |
| SARS-CoV-2 spike, B.1.617.2 (Delta): GnTI- cells | decreases | no change | – | – |
| SARS-CoV-2 spike, BA.1 (Omicron): 20 μM swainsonine | – | no change | no change, 74 ± 7 vs 54 ± 7 | no change |
| SARS-CoV-2 spike, BA.1 (Omicron): 50 μM kifunensine | – | no change | – | abolishes |
| SARS-CoV-2 spike, BA.1 (Omicron): GnTI- cells | – | no change | – | abolishes |
| SARS-CoV-2 spike, D614G: 20 μM swainsonine | no change | – | – | – |
| SARS-CoV-2 spike, D614G: 50 μM kifunensine | decreases | no change | no change, 55 ± 9 vs 64 ± 4 | – |

Same assay, conditions: glycan lost

| Substance | other: pseudovirus infectivity | other: neutralisation sensitivity | other: neutralisation sensitivity, other: maximum % neutralisation | other: pseudovirus infectivity, fold_change | other: proteolytic processing | other: pseudovirus particle yield (p24) | other: neutralisation sensitivity, fold_change |
| --- | --- | --- | --- | --- | --- | --- | --- |
| SARS-CoV-2 spike, B.1.617.2 (Delta): N717Q | no change | – | – | – | – | – | – |
| SARS-CoV-2 spike, B.1.617.2 (Delta): N801Q | no change | – | – | – | – | – | – |
| SARS-CoV-2 spike, BA.1 (Omicron): N17Q | – | no change | – | – | – | – | – |
| SARS-CoV-2 spike, BA.1 (Omicron): N61Q | – | no change | no change, 73 ± 10 vs 79 ± 7 | – | – | – | – |
| SARS-CoV-2 spike, BA.1 (Omicron): N74Q | – | no change | no change, 77 ± 9 vs 79 ± 7 | – | – | – | – |
| SARS-CoV-2 spike, BA.1 (Omicron): N122Q | – | no change | decreases, 36 ± 19 vs 79 ± 7 | – | – | – | – |
| SARS-CoV-2 spike, BA.1 (Omicron): N149Q | – | no change | – | – | – | – | – |
| SARS-CoV-2 spike, BA.1 (Omicron): N165Q | – | no change | no change, 79 ± 7 vs 79 ± 7 | – | – | – | – |
| SARS-CoV-2 spike, BA.1 (Omicron): N234Q | – | – | no change, 87 ± 4 vs 79 ± 7 | – | – | – | – |
| SARS-CoV-2 spike, BA.1 (Omicron): N282Q | – | no change | – | – | – | – | – |
| SARS-CoV-2 spike, BA.1 (Omicron): N331Q | – | no change | – | – | – | – | – |
| SARS-CoV-2 spike, BA.1 (Omicron): N343Q | – | no change | no change, 82 ± 6 vs 79 ± 7 | – | – | – | – |
| SARS-CoV-2 spike, BA.1 (Omicron): N603Q | – | no change | – | – | – | – | – |
| SARS-CoV-2 spike, BA.1 (Omicron): N616Q | – | no change | – | – | – | – | – |
| SARS-CoV-2 spike, BA.1 (Omicron): N657Q | – | no change | – | – | – | – | – |
| SARS-CoV-2 spike, BA.1 (Omicron): N709Q | – | no change | – | – | – | – | – |
| SARS-CoV-2 spike, BA.1 (Omicron): N717A | – | – | – | decreases | – | – | – |
| SARS-CoV-2 spike, BA.1 (Omicron): N717Q | – | – | – | – | decreases | – | – |
| SARS-CoV-2 spike, BA.1 (Omicron): N801A | – | – | – | abolishes | – | – | – |
| SARS-CoV-2 spike, BA.1 (Omicron): N801Q | – | – | – | – | decreases | – | – |
| SARS-CoV-2 spike, BA.1 (Omicron): N1074Q | – | no change | no change, 86 ± 13 vs 79 ± 7 | – | – | decreases | – |
| SARS-CoV-2 spike, BA.1 (Omicron): N1098Q | – | no change | no change, 85 ± 7 vs 79 ± 7 | – | – | decreases | – |
| SARS-CoV-2 spike, BA.1 (Omicron): N1134Q | – | no change | no change, 73 ± 15 vs 79 ± 7 | – | – | – | – |
| SARS-CoV-2 spike, BA.1 (Omicron): N1158Q | – | no change | no change, 86 ± 34 vs 79 ± 7 | – | – | – | – |
| SARS-CoV-2 spike, BA.1 (Omicron): N1173Q | – | no change | no change, 80 ± 9 vs 79 ± 7 | – | – | – | – |
| SARS-CoV-2 spike, BA.1 (Omicron): N1194Q | – | no change | no change, 75 ± 11 vs 79 ± 7 | – | – | – | – |

| Substance | other: pseudovirus infectivity | other: neutralisation sensitivity | other: neutralisation sensitivity, other: maximum % neutralisation | other: pseudovirus infectivity, fold_change | other: proteolytic processing | other: pseudovirus particle yield (p24) | other: neutralisation sensitivity, fold_change |
| --- | --- | --- | --- | --- | --- | --- | --- |
| SARS-CoV-2 spike, BA.4 (Omicron): N717Q | – | – | – | abolishes | – | – | – |
| SARS-CoV-2 spike, BA.4 (Omicron): N801Q | – | – | – | abolishes | – | – | – |
| SARS-CoV-2 spike, BQ.1.1 (Omicron): N717Q | – | – | – | abolishes | – | – | – |
| SARS-CoV-2 spike, BQ.1.1 (Omicron): N801Q | – | – | – | abolishes | – | – | – |
| SARS-CoV-2 spike, D614G: N17Q | – | no change | – | – | – | – | – |
| SARS-CoV-2 spike, D614G: N61Q | – | no change | no change, 61 ± 4 vs 64 ± 4 | decreases | decreases | – | – |
| SARS-CoV-2 spike, D614G: N74Q | – | no change | no change, 62 ± 3 vs 64 ± 4 | – | – | – | – |
| SARS-CoV-2 spike, D614G: N122Q | – | no change | no change, 62 ± 9 vs 64 ± 4; also recorded: decreases, 29 ± 4 vs 65 ± 7 | decreases | – | – | – |
| SARS-CoV-2 spike, D614G: N149Q | – | no change | – | – | – | – | – |
| SARS-CoV-2 spike, D614G: N165Q | – | no change | – | – | – | – | – |
| SARS-CoV-2 spike, D614G: N234Q | – | – | – | – | – | – | decreases |
| SARS-CoV-2 spike, D614G: N282Q | – | no change | – | – | – | – | decreases |
| SARS-CoV-2 spike, D614G: N331Q | – | no change | no change, 60 ± 4 vs 64 ± 4 | – | – | – | – |
| SARS-CoV-2 spike, D614G: N343Q | – | no change | – | decreases | – | – | – |
| SARS-CoV-2 spike, D614G: N603Q | – | no change | no change, 62 ± 3 vs 64 ± 4 | – | – | – | – |
| SARS-CoV-2 spike, D614G: N616Q | – | no change | no change, 64 ± 7 vs 64 ± 4 | – | – | – | – |
| SARS-CoV-2 spike, D614G: N657Q | – | no change | no change, 58 ± 4 vs 64 ± 4 | – | – | – | – |
| SARS-CoV-2 spike, D614G: N709Q | – | no change | no change, 69 ± 6 vs 64 ± 4 | – | – | – | – |
| SARS-CoV-2 spike, D614G: N717Q | – | no change | no change, 67 ± 9 vs 64 ± 4; also recorded: decreases, 43 ± 6 vs 65 ± 7 | decreases | – | – | – |
| SARS-CoV-2 spike, D614G: N801Q | – | no change | no change, 63 ± 4 vs 64 ± 4; also recorded: no change, 74 ± 7 vs 65 ± 7 | decreases | – | – | – |
| SARS-CoV-2 spike, D614G: N1074Q | – | no change | no change, 61 ± 4 vs 64 ± 4; also recorded: decreases, 45 ± 6 vs 65 ± 7 | decreases | – | – | – |
| SARS-CoV-2 spike, D614G: N1098Q | – | no change | no change, 69 ± 11 vs 64 ± 4 | – | – | – | – |
| SARS-CoV-2 spike, D614G: N1134Q | – | no change | no change, 65 ± 5 vs 64 ± 4; also recorded: no change, 65 ± 4 vs 65 ± 7 | – | – | – | – |
| SARS-CoV-2 spike, D614G: N1158Q | – | no change | no change, 63 ± 3 vs 64 ± 4 | – | – | – | – |
| SARS-CoV-2 spike, D614G: N1173Q | – | no change | no change, 73 ± 14 vs 64 ± 4; also recorded: decreases, 50 ± 5 vs 65 ± 7 | – | – | – | – |
| SARS-CoV-2 spike, D614G: N1194Q | – | no change | no change, 66 ± 3 vs 64 ± 4; also recorded: no change, 60 ± 3 vs 65 ± 7 | – | – | – | – |
